The values that follow come from patent US20250197467A1 (BRIGHT PEAK THERAPEUTICS, published 2025).

First the molecules themselves.
T1: IL-18 receptor (IL-18Rαβ) on cells (UniProt Q13478 19-541; O95256 20-599, limits assumed)
T1 sequence (looked up) 1: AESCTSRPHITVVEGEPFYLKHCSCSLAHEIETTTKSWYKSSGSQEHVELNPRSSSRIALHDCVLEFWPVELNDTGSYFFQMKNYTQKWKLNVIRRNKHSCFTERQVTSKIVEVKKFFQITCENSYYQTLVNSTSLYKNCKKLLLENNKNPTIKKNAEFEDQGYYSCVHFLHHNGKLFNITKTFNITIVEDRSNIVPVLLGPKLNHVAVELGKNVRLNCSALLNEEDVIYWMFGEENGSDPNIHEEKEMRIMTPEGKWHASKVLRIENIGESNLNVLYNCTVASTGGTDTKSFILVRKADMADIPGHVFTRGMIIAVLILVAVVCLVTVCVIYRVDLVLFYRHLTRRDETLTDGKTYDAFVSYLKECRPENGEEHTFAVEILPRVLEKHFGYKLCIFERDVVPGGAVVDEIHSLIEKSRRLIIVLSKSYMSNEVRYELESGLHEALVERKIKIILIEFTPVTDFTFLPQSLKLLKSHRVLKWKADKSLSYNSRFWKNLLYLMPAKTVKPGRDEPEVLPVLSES
T1 sequence (looked up) 2: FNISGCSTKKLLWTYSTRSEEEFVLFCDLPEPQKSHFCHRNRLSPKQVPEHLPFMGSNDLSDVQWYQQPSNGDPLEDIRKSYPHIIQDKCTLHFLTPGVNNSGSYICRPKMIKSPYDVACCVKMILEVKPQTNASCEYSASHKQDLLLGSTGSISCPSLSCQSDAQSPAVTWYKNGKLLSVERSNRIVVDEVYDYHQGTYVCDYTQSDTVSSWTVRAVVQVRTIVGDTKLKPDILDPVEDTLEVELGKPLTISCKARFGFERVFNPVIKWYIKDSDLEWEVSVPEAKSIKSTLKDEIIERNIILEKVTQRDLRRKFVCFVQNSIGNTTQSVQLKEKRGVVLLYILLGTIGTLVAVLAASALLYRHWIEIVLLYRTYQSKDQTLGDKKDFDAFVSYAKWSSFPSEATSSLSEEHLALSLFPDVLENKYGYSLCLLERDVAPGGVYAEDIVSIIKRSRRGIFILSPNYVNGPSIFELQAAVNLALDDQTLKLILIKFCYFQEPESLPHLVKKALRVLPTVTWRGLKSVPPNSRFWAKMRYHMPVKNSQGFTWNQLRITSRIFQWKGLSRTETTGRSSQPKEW

B1: SEQ ID NO 48 (ligand)
chain: YFGKLESKLSVIRNLNDQVLFIDQGNRPLFEDMTDSDSRDNAPRTIFIISMYKDSQPRGMAVTISVKSECISTLSSENKIISFKEMNPPDNIKDTKSDIIFFQRSVPGHDNKMQFESSSYEGYFLASEKERDLFKLILKKEDELGDRSIMFTVQNED
B2: SEQ ID NO 35 (ligand)
chain: GAGKLKSKLSVIRNLNDQVLFIDQGNRPLFEDMTDSDCRDNAPRTIFIISGYAAAQPRGMAVAISVKCEKISTLSCENKIISFKEMNPPDNIKDTKSDIIFFQRSVPGHDNKMQFESSSYEGYFLACEKERDLFKLILKKEDELGDRSIMFTVQNED
B3: SEQ ID NO 46 (ligand)
chain: YFGKLKSKLSVIRNLNDQVLFIDQGNRPLFEDMTDSDCRDNAPRTIFIISGYADAQPRGMAVTISVKCEKISTLSCENKIISFKEMNPPDNIKDTKSDIIFFQRSVPGHDNKMQFESSSYEGYFLACEKERDLFKLILKKEDELGDRSIMFTVQNED
B4: SEQ ID NO 49 (ligand)
chain: YFGKLKSKLSVIRNLNDQVLFIDQGNRPLFEDMTDSDSRDNAPRTIFIISMYADAQPRGMAVTISVKSECISTLSSENKIISFKEMNPPDNIKDTKSDIIFFQRSVPGHDNKMQFESSSYEGYFLASEKERDLFKLILKKEDELGDRSIMFTVQNED
B5: SEQ ID NO 47 (ligand)
chain: YFGKLESKLSVIRNLNDQVLFIDQGNRPLFEDMTDSDSRDNAPRTIFIISMYKDSQPRGMAVTISVKSEKISTLSSENKIISFKEMNPPDNIKDTKSDIIFFQRSVPGHDNKMQFESSSYEGYFLASEKERDLFKLILKKEDELGDRSIMFTVQNED
B6: SEQ ID NO 44 (ligand)
chain: YAGKLKSKLSVIRNLNDQVLFIDQGNRPLFEDMTDSDCRDNAPRTIFIISMYADAQPRGMAVTISVKCEKISTLSCENKIISFKEMNPPDNIKDTKSDIIFFQRSVPGHDNKMQFESSSYEGYFLACEKERDLFKLILKKEDELGDRSIMFTVQNED
B7: SEQ ID NO 45 (ligand)
chain: YFGKLKSKLSVIRNLNDQVLFIDQGNRPLFEDMTDSDCRDNAPRTIFIISMYAAAQPRGMAVTISVKCEKISTLSCENKIISFKEMNPPDNIKDTKSDIIFFQRSVPGHDNKMQFESSSYEGYFLACEKERDLFKLILKKEDELGDRSIMFTVQNED
B8: SEQ ID NO 43 (ligand)
chain: GFGKLKSKLSVIRNLNDQVLFIDQGNRPLFEDMTDSDCRDNAPRTIFIISMYADAQPRGMAVTISVKCEKISTLSCENKIISFKEMNPPDNIKDTKSDIIFFQRSVPGHDNKMQFESSSYEGYFLACEKERDLFKLILKKEDELGDRSIMFTVQNED
B9: C140 (ligand)
chain: GGGGYFGKLKSKLSIIRNLNDQVLFIDQGNRPLFEDMTDSDARDNAPRTIFIISMYADSQPRGMAVAISVKCEKISTLSAENKIISFKEMNPPDNIKDTKSDIIFFQRSVPGHDNKMQFESSSYEGYFLAAEKERDLFKLILKKEDELGDRSIMFTVQNED
B10: SEQ ID NO 56 (ligand)
chain: YFGKLKSKLSVIRNLNDQVLFIDQGNRPLFEDMTDSDSRDNAPRTIFIISMYADSQPRGMAVTISVKCEKISTLSSENKIISFKEMNPPDNIKDTKSDIIFFQRSVPGHDNKMQFESSSYEGYFLASEKERDLFKLILKKEDELGDRSIMFTVQNED
B11: C177 (ligand)
chain: YFGKLKSKLSIIRNLNDQVLFIDQGNRPLFEDMTDSDARDNAPRTIFIRSMYADSQPRGMAVAISVKCEKISTLSAENKIISFKEMNPPDNIKDTKSDIIFFQRSVPGHDNKMQFESSSYEGYFLAAEKERDLFKLILKKEDELGDRSIMFTVQNED
B12: C142 (ligand)
chain: MFGKLKSKLSIIRNLNDQVLFIDQGNRPLFEDMTDSDARDNAPRTIFIISMYADSQPRGMAVAISVKCEKISTLSAENKIISFKEMNPPDNIKDTKSDIIFFQRSVPGHDNKMQFESSSYEGYFLAAEKERDLFKLILKKEDELGDRSIMFTVQNED
B13: C182 (ligand)
chain: YFGKLKSKLSIIRNLNDQVLFIDQGNRPLFEDMTDSDARDNAPRTIFIISMYADSQPRGMAVAISVKCEKISTLSAENKIISFKEMNPPDNIKDTKSDIIFFQRSVPGHDNKMQFESSSYEGYFLAAEKERDLFKLILKKEDELGDRSIMFTYQNED
B14: C176 (ligand)
chain: YFGKLKSKLSIIRNLNDQVLFIDQGNRPLFEDMTDSDARDNAPRTIFIMSMYADSQPRGMAVAISVKCEKISTLSAENKIISFKEMNPPDNIKDTKSDIIFFQRSVPGHDNKMQFESSSYEGYFLAAEKERDLFKLILKKEDELGDRSIMFTVQNED
B15: C181 (ligand)
chain: YFGKLKSKLSIIRNLNDQVLFIDQGNRPLFEDMTDSDARDNAPRTIFIISMYADSQPRGMAVAISVKCEKISTLSAENKIISFKEMNPPDNIKDTKSDIIFFQRSVPGHDNKMQFESSSYEGYFLAAEKERDLFKLILKKEDELGDRSIMFTEQNED
B16: C184 (ligand)
chain: YFGKLRSKLSIIRNLNDQVLFIDQGNRPLFEDMTDSDARDNAPRTIFIISMYADSQPRGMAVAISVKCEKISTLSAENKIISFKEMNPPDNIKDTKSDIIFFQRSVPGHDNKMQFESSSYEGYFLAAEKERDLFKLILKKEDELGDRSIMFTVQNED
B17: C174 (ligand)
chain: YFGKLKSLLSIIRNLNDQVLFIDQGNRPLFEDMTDSDARDNAPRTIFIISMYADSQPRGMAVAISVKCEKISTLSAENKIISFKEMNPPDNIKDTKSDIIFFQRSVPGHDNKMQFESSSYEGYFLAAEKERDLFKLILKKEDELGDRSIMFTVQNED
B18: C179 (ligand)
chain: YFGKLKSELSIIRNLNDQVLFIDQGNRPLFEDMTDSDARDNAPRTIFIISMYADSQPRGMAVAISVKCEKISTLSAENKIISFKEMNPPDNIKDTKSDIIFFRRSVPGHDNKMQFESSSYEGYFLAAEKERDLFKLILKKEDELGDRSIMFTVQNED
B19: C183 (ligand)
chain: YFGKLKSKLSIIRNLNDQVLFIDQGNRPLFEDMTDSDARDNAPRTIFIISGYADSQPRGMAVAISVKCEKISTLSAENKIISFKEMNPPDNIKDTKSDIIFFQRSVPGHDNKMQFESSSYEGYFLAAEKERDLFKLILKKEDELGDRSIMFTVQNED
B20: C178 (ligand)
chain: YFGKLKSKLSIIRNLNDQVLFIDQGNRPLFEDMTDSDARDNAPRTIFIISMYADSQPRGMAVAISVKCEKISTLSAENKIISFKEMNPPDNIKDTKSDIIFFRRSVPGHDNKMQFESSSYEGYFLAAEKERDLFKLILKKEDELGDRSIMFTVQNED
B21: C141 (ligand)
chain: GYFGKLKSKLSIIRNLNDQVLFIDQGNRPLFEDMTDSDARDNAPRTIFIISMYADSQPRGMAVAISVKCEKISTLSAENKIISFKEMNPPDNIKDTKSDIIFFQRSVPGHDNKMQFESSSYEGYFLAAEKERDLFKLILKKEDELGDRSIMFTVQNED
B22: C192 (ligand)
chain: GYFGKLKSKLSIIRNLNDQVLFIDQGNRPLFEDMTDSDARDNAPRTIFIISGYADSQPRGMAVAISVKCEKISTLSAENKIISFKEMNPPDNIKDTKSDIIFFQRSVPGHDNKMQFESSSYEGYFLAAEKERDLFKLILKKEDELGDRSIMFTVQNED

The target in one test is T1, IL-18 receptor (IL-18Rαβ) on cells. Description: cell-based or functional assay.
On to B1, for which the “EC50 (IFNγ stimulation, NK92)” value amounted to 0.488 nM.

With B2, the “EC50 (IFNγ stimulation, NK92)” value is over 55 nM.

Turning to B3, the “EC50 (IFNγ stimulation, NK92)” value worked out at 7.4 nM.

B4: the “EC50 (IFNγ stimulation, NK92)” value came out at 58.5 nM.

With B5, the “EC50 (IFNγ stimulation, NK92)” value worked out at 0.115 nM.

For B6, the “EC50 (IFNγ stimulation, NK92)” value is over 1000 nM.

With B7, the “EC50 (IFNγ stimulation, NK92)” value came to 30 nM.

On to B8, for which the “EC50 (IFNγ stimulation, NK92)” value amounted to 6.12 nM.

The target is the same in the next test. The test is described as follows: cell-based or functional assay. The source holds these as a separate data set.
Consider B9, for which the “HEK-Blue IL-18R reporter EC50” value was 2.5 pM.

Take B10: the “HEK-Blue IL-18R reporter EC50” value came out at 3.73 pM.

For B11, the “HEK-Blue IL-18R reporter EC50” value came out at 0.04 pM.

For B12, the “HEK-Blue IL-18R reporter EC50” value was found to be 0.02 pM.

As for B13, the “HEK-Blue IL-18R reporter EC50” value came to 0.08 pM.

Regarding B14, the “HEK-Blue IL-18R reporter EC50” value stood at 0.07 pM.

With B15, the “HEK-Blue IL-18R reporter EC50” value was determined as 0.1 pM.

As to B16, the “HEK-Blue IL-18R reporter EC50” value is 0.04 pM.

Turning to B17, the “HEK-Blue IL-18R reporter EC50” value worked out at 0.29 pM.

With B18, the “HEK-Blue IL-18R reporter EC50” value was 0.4 pM.

Regarding B19, the “HEK-Blue IL-18R reporter EC50” value was found to be 0.1 pM.

Turning to B20, the “HEK-Blue IL-18R reporter EC50” value is 0.26 pM.

Take B21: the “HEK-Blue IL-18R reporter EC50” value is 1.68 pM.

For the molecule B22, the “HEK-Blue IL-18R reporter EC50” value came to 14 pM.
